Laboratory results: a protein production outcome set (Wang et al. 2014)

Test: label from the status in PepcDB records
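Note: failed if final PepcDB status was selected cloned or expressed and not failed if soluble or beyond.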

Sequence | protein production
MIITIARQCGCGGHEVARILANKLGMELFDKKKLLEEANQLGQAEEHSNFFNEVPINSLLYGIAMGFGNTKPMDKSLKLVKAITENKDAIIIGRCANIIYKDSKDVTSVYLFADKEFRIKYLMERDGISEKEAEKYIKEVDEKRTSFHKYCTDTVWGDAKEYQLCLDTGKIGFEKTAELIMNYINAKKES | failed
MNEPQAFAQTDAEWLASINRARDWFQGPLGSLMLAEERRLLCDELTRYFGGYLVHYGPHAELPPSTGQIQRGVRLGPPLPGVDIACEEGAWPLSEHAADVVLLQHGLDFCLSPHRLLREAARTVRPGGHLLLIGINPWSLWGIRHYFAGDALRQARCIPPSRACDWLNLLGFALEKRRFGCYRPPLASAAWQSRLARLERWGDAWQSSGAGFYLLVARKLVVGLRPLRQSKREPRGQLVPMPVAKVSRRDSEI | failed
MPNCEKEALVVAAAMEKGTIHPIGRYLLPQYWEGPPLCFEYFPGRGLTATVSCIESVTEGNKLRKSSLGSVEFITSLFESQDQSREIKNAVNSSLYGNDFVHALLSLYQKVTLIHLEDQPHQPFYRPISLNLRHVMIKINTFIQFFFRMNQISNHEIGSFSAFATQFFSFLTHYSILPNPINSLNPTLRPLVPCTIHELAPPPAPPPFPSCKSAM | failed
TLPGRISRERRGHLLLLGLDRVAKRNAFDLPMLDDLVAALGEYEADDQLRCALLFAHGEHFTAGLDLANVGETFRQGWKLPEGAVDPWGTFGGRRPSKPLVVAVQGYCYTIGIELMLAADINLCASNARFAQLEVQRGILPFGGATLRMHQVAGWGNAMRWLLTGDEFDAHEAYRLGLVQEVTAPEDLLDHAIALAERVAAQAPLGVRATLGSARQALLEGEAVAAAALPEAARRLLDSEDAKEGLRALQERRPGRFE | failed
MSEPHRDTKIGQVLMNRYQLTELIGKGSMGRVYRAEDILLGGVPVAVKFLSQTLLNDRMKTRFAQEARAGALLGQKSMHVVRVLDYGMNNEEIPFYVMEFLEGENLSDLLLEEPLPLSRFLRIARHMCLGLQVAHEGIIIEGQKCPIIHRDIKPSNVLVIQDGTMGELAKLLDFGIAKFLGDVPEKGQTSSFMGTLAYCSPEQIEGRELDHRSDIYSLGITMYELLTGKMPIQAESHSIGSWFKAHHFQKPIPFNVASPGLHLPPALEELIMACMAKSPSDRPQNVAEIIKVLTALEDQFGSTRVTQPGVEVGAKVSQPLERQSQPPVALATVEEVCWQSVWPADKPVAEIVFPMPLYAQRESAASLWVMLPRSEIDRRMLNLRYNQFLFTTSPHPMILWITAIYDPQQGPRWLPCYLDMKLPRNQELCLLLSETGYYPLLFFSLEDPQHCINVRTFTIATFQRQLLRDWLQTSKNLPSSAPAVVSRNLLKAEFENYKPQILAKLENVKMATVID | failed
PPLEINSRVSLKVGETIESGTVIFCDVLPGKESLGYFVGVDMDNPIGNWDGRFDGVQLCSFACVESTILLHINDIIPES | not failed
MEWQAEQAYNHLPPLPLDSKLAELAETLPILKACIPARAALAELKQAGELLPNQGLLINLLPLLEAQGSSEIENIVTTTDKLFQYAQEDSQADPMTKEALRYRTALYQCFTQLSNRPLCVTTALEICSTIKSVQMDVRKVPGTSLTNQATGEVIYTPPAGESVIRDLLSNWEAFLHNQDDVDPLIKMAMAHYQFEAIHPFIDGNGRTGRVLNILYLIDQQLLSAPILYLSRYIVAHKQDYYRLLLNVTTQQEWQPWIIFILNAVEQTAKWTTHKIAAARELIAHTTEYVRQQLPKIYSHELVQVIFEQPYCRIQNLVESGLAKRQTASVYLKQLCDIGVLEEVQSGKEKLFVHPKFVTLMTKDSNQFSRYAL | not failed
MPPLGRPCHLAAMDSTDGPLDLIAERAEAAWSRGDRHRAMTLARLGLGQDDGHPRLLAVLGAFEQAEGRSAAAAGLFRRAMARCGDDPLMLHNLGVALRGAGLIDAAAAAWEGVLRGCPQRFATLFNLARLRDDQGRGEEALALYRRACLADPAASDAAYNLGNLLARRGALAQAAEVLGKAASVTPHDARIQTNLGIVLRRLGDAAGALACQRRAVALDPDLADAQWNLANLLLALDDYDEGFARYEWRKRRAPWRLVDPPLAEWRGEDLAGRRLLVGLEQGAGDMIQAARFLPVLAGRGARVIVEAPDALAGLLATVDGVESVVAPGAWAAARATCHIRAFSLPYRLGLRFADLAATAGPYLRVPPRTPTPPALPPGGQGPCVGLCWSGNPDFTENAVRAAPLAAFAPLTAVEGLTFFSLQKGPAVAELAASGLPVIDLDPWLVDYAATAAAMARLDMVVTTDTSVAHLAGALGRPCLLLLAAHCDWRWGIGRETSPWYPSLRLLRQERLGDWRAPVARAAALLAGLRRGTDTRGPEST | failed
MLFTNLDGVRNVVPVGHRQRRARPVGAGDVRAEKSLRYHLQEHGRLPLNEAVAVLSDVAEALADLKDREIVHRDLKPENILLLGGRRCLADFGIARYAEATIAKHTLKLAGTLAYMAPERWNNQRAASASDIYAPGVVAYELLEETPPFTGPYEHDYHDQHLHGPVRPSPQLRPSWRR | failed
MPQFASKAEEKNYYERQASLAEFLTWYHQQELPEYEKPSLTVDMVLLCYNKEADQLKVLLIQRKGHPFRNSWALPGGFVNRNESTEDSVLRETKEETGVVISQENIEQLHSFSRPDRDPRGWVVTVSYLAFIGEEPLIAGDDAKEVHWFNLERHGQHITLSHEDVEITLDLKTAASLGKDTLAFDHSEIIIKAFNRVVDKMEHEPQVLQVLGKDFTITEARKVFAKFLGVDYRSIDHSNFKKAMTQYFEELGERPVGIGRPSKIYQLKTTTGF | not failed
MPGVLVTGGTGKTGKVLVQVLRNAGVQARVASRNPAAADPDPIRFDWNDPTTYGPALDGMDRVFLLPPVESVDPLPLVEPFLRRAQRAGVQRLVMLGSAIVLPNAPSAVEMAAQVQAQPGGVVLRASGFMQNFLRPHPLAEHIHRLGEIRTAAGDGRLGWVDARDIAASAAALLADLEVDARSDYLITGPHGMSYPQAAQIITAQTGRRVRVERITEEEQAAAHRASGMPPAFADALAAVERGIKEGREDQVSTAVLELTGRPPRTFAEFVSDHAYEWTQ | failed
MEENTAVAAAERRSGCGLLSVMFGRRGLWSKKSTAVDNGSQKSTSTAATATSNIQFTKSPGTELKKPRDDQKVSAEPIQNNKIQNNQNHNQRSVVPSKPSSNQYPNNHQLGTYENHQRSSYNNNSNSVDPYRGGGGQRKVPREAIGLSGELESMITDHQKAKGTNGLVRASSSNIMLYGNLGNLNQTGPVTAGVNYGNNNGYGVKRTTMGAATATTTKSQDQSGSLCRAISTRMDPETLKIMGNEDYKNGNFAEALALYDAAIAIDPNKAAYRSNKSAALTALGRILDAVFECREAIRIEPHYHRAHHRLGNLYLRLGEVEKSIYHFKHSGPEADREDIAKAKTVQTHLNKCTEAKRLRDWNGLITETTNTISSGADAAPQVYALQAEALLKTHRHQEADDALSRCPVFDIDASTRYYGPVGYAGFLVVRAQVHLASGRFDEAVEAIQRAGKLDGNNREVIMISRRAQAVTEARFKGNELFKSGRFQEACAAYGEGLDHDPRNSVLLCNRAACRSKLGQFDKSIEDCTAALSVRPGYGKARLRRADCNAKIEKWELAVGDYEILKKESPEDEQVIRGLSEAQQQLMKRSGQDS | failed
MEAAVNAAEAYSHIRAVMGMVVGLSLARLLTGLAGFVQHPKKERIYLLHIGWVAFLFLMLVHFWWWEHRLSATGHVLDFGAFLFLILFCSLFYFLCVLLFPTDMKEYKGYEDYFFSRKSWFFAFLAALFVTDVGDTLLKGHDYLASLGPEYLIRTAIYVVLFTAAAFIDNRRFHRFLVIFALVYQIAWIFRTYDLLA | failed
MLMNLPEILKNQKARARKFKPVKMSKRTELWYRQQLKQFVKMMTNDVERALQQPQGSFFMDDAKGFQAISAKALMKVLEKYEKSDRTSQAENIANGFVSRGDAQNHAEVSTNLKNQTGIDLSAYLRNSPNITEKVNALTAGNIQLIKSIRSQYLDKVQNAVMQAMVRGSLNKDLAAQIKDLGKTTEKRAMFIARDQSSKLNAALTQARHEEVGIKKYMWSASLDERVRESHAEKDGQIFEYANPPADTDHPGHDFNCRCVQIPVLDNNEQIVKNSPIVSQQEKQQMRSEWSDDFPDTIIDRKLGDATSHPLYENAKKGSIEDAYQLAKDLVTDDAVNKLKQLVGNKNAILIPVHAEEAVGQNMIPVAIATVLSKKLHIPVDLSIVQATKVSRTGGDGWHRLVYSPAFDGIVPKDKYAIILDDTQTQGGTLASLKGYIIKEKLLHLML | failed
